Where a chain is given by its changes, count along the chain named. Square brackets hold non-standard residues; d marks the D form. GABA = NCCCC(=O)O

Common to all, as to experiment: positional peptide library pulldown on immobilised Nb, LC-MS of supernatant; signal ratio to control GFP-Nb (1 = not captured, near 0 = captured)
One test deals with T1, BC2T R3H.
T1 construct: positional scanning library member
T1 peptide: Ac-PDHKAAVSHWQQ-NH2
A digest of the protocol: (§1)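 Unbound peptide left in supernatant after 1 h pulldown in PBS/0.01% CHAPS measured by reversed-phase LC-MS (8–30% eluent B gradient, 20 min).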

For the next test, the target named is T2, BC2T D2K.
T2 construct: positional scanning library member
T2 peptide: Ac-PKRKAAVSHWQQ-NH2
A digest of the protocol: as §1

Another test concerns the target T3, BC2T K4E.
T3 construct: positional scanning library member
T3 peptide: Ac-PDREAAVSHWQQ-NH2
A digest of the protocol:
as §1

A further test deals with T4, BC2T D2R.
T4 construct: positional scanning library member
T4 peptide: Ac-PRRKAAVSHWQQ-NH2
Summed up: as §1

The next test concerns the target T5, BC2T K4H.
T5 construct: positional scanning library member
T5 peptide: Ac-PDRHAAVSHWQQ-NH2
A digest of the protocol:
as §1

A further test has as its target T6, BC2T A5R.
T6 construct: positional scanning library member
T6 peptide: Ac-PDRKRAVSHWQQ-NH2
A digest of the protocol:
as §1

The next test concerns the target T7, BC2T A6D.
T7 construct: positional scanning library member
T7 peptide: Ac-PDRKADVSHWQQ-NH2
A digest of the protocol:
as §1

Another test deals with T8, BC2T P1Y.
T8 construct: positional scanning library member
T8 peptide: Ac-YDRKAAVSHWQQ-NH2
Summed up:
as §1

The target of another test is T9, BC2T D2W.
T9 construct: positional scanning library member
T9 peptide: Ac-PWRKAAVSHWQQ-NH2
Summed up: as §1

A further test has as its target T10, BC2T D2P.
T10 construct: positional scanning library member
T10 peptide: Ac-PPRKAAVSHWQQ-NH2
Summed up: as §1

A further test addresses T11, BC2T P1N.
T11 construct: positional scanning library member
T11 peptide: Ac-NDRKAAVSHWQQ-NH2
Summed up: as §1

The target in the next test is T12, BC2T P1C(Abu) (SMILES …).
T12 construct: positional scanning library member
T12 peptide: Ac-[GABA]DRKAAVSHWQQ-NH2
Summed up: as §1

The next test concerns the target T13, BC2T D2E.
T13 construct: positional scanning library member
T13 peptide: Ac-PERKAAVSHWQQ-NH2
A digest of the protocol: as §1

For another test, the target named is T14, BC2T A6Y.
T14 construct: positional scanning library member
T14 peptide: Ac-PDRKAYVSHWQQ-NH2
Summed up:
as §1

A further test has as its target T15, BC2T K4Q.
T15 construct: positional scanning library member
T15 peptide: Ac-PDRQAAVSHWQQ-NH2
A digest of the protocol: as §1

In a further test the target is T16, BC2T A5Y.
T16 construct: positional scanning library member
T16 peptide: Ac-PDRKYAVSHWQQ-NH2
A digest of the protocol:
as §1

The next test has as its target T17, BC2T A5T.
T17 construct: positional scanning library member
T17 peptide: Ac-PDRKTAVSHWQQ-NH2
Summed up: as §1

In another test the target is T18, BC2T R3T.
T18 construct: positional scanning library member
T18 peptide: Ac-PDTKAAVSHWQQ-NH2
Summed up:
as §1

The target of a further test is T19, BC2T H9E.
T19 construct: positional scanning library member
T19 peptide: Ac-PDRKAAVSEWQQ-NH2
A digest of the protocol: as §1

A further test has as its target T20, BC2T Q11E.
T20 construct: positional scanning library member
T20 peptide: Ac-PDRKAAVSHWEQ-NH2
Summed up: as §1

Another test deals with T21, BC2T H9D.
T21 construct: positional scanning library member
T21 peptide: Ac-PDRKAAVSDWQQ-NH2
Summed up:
as §1

B1: BC2-NbR106E (VHH)
VHH: QVQLVESGGGLVQPGGSLTLSCTASGFTLDHYDIGWFRQAPGKEREGVSCINNSDDDTYYADSVKGRFTIFMDNAKDTVYLQMNSLKPEDTAIYYCAEARGCKRGEYEYDFWGQGTQVTVSS
notes: headlock mutant of BC2-Nb; immobilised on beads in this assay
For the molecule B1, the ratio with BC2T R3H turned out to be 0.5; with BC2T D2K, 0.1; in the test with BC2T K4E, 0.9; with BC2T D2R, 0.1; with BC2T K4H it was 0.2; with BC2T A5R, 0. The ratio with BC2T A6D turned out to be 1; in the test with BC2T P1Y it was 0.2; in the test with BC2T D2W, 0.1; with BC2T D2P, 0.8; with BC2T P1N it was 0.7; with BC2T P1C(Abu), 0.2. Further, the ratio with BC2T D2E stood at 0.2; with BC2T A6Y it was 1; in the test with BC2T K4Q it was 0.2; with BC2T A5Y, 0.1; in the test with BC2T A5T, 0.1; with BC2T R3T it was 0.6.

B2: BC2 nanobody (VHH)
VHH: B1 VHH with E106R
notes: immobilised on beads in this assay; also called BC2-Nb; BC2 nanotrap (immobilised)
B2: the ratio amounted to 0.2 in the test with BC2T H9E, 0.1 with BC2T Q11E and 0.1 with BC2T H9D.

(Values after patent publication US20170137467A1 (CHROMOTEK, published 2017).)
